Residue numbers refer to the chain shown, from its start. One block for each binder: values may come before it.
Legend:
[1] = molecular target: T1, Regnase-1 PIN domain, catalytically inactive monomeric mutant (DDNN and D278R) (Mus musculus, UniProt Q5D1E7 134-295, D226N | D244N | D278R); assay: NMR titration; 1H-15N HSQC of 15N-labeled NTD at 100 uM with unlabeled PIN (DDNN, D278R) added (3 or 6 molar equivalents); 298 K; apparent Kd from the titration curve of L58; conditions: both partners purified
T1 construct: Regnase-1 (Zc3h12a), Mus musculus, PIN domain; the discussion gives PIN as residues 134-295; Limits as for m1; Uniformly 15N-labelled or unlabelled in the NMR experiments; not shown: GST, N-terminal, cleaved
T1 sequence (looked up): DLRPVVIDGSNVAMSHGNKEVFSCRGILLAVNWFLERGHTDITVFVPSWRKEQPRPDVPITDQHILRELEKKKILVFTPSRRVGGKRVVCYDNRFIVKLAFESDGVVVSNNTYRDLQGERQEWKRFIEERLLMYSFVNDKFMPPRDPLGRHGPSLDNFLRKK

Regnase-1 ZF domain = molecular target: T2, Regnase-1 ZF domain (Mus musculus, UniProt Q5D1E7 299-339); assay: NMR titration (1H-15N HSQC, Y314); Zn2+-bound ZF; 100 uM ZF; apparent Kd; EMSA: 20 mM HEPES-NaOH pH 6.8, 150 mM NaCl, 1 mM DTT, 10% glycerol, 0.1% NP-40, 4 C, 30 min; NMR buffer not in material; conditions: protein: recombinant; tags: GST removed (HRV-3C), 15N-labeled
T2 chain: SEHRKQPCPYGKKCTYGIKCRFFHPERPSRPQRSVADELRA

[2] = molecular target: the molecule itself; assay: not stated; Kd of PIN-PIN told in the discussion only; how it was estimated is not told
[3] = molecular target: the molecule itself; assay: SEC; gel filtration of the PIN domain and its mutants; elution volume compared with standard marker proteins; concentration dependent, 20-200 uM range
[4] = molecular target: the molecule itself; assay: crystal structure; PIN-ZF (134-339), sitting drop vapor diffusion at 20 C; form I (P3_121, selenomethionine-labeled) and form II (P3_221, native)

Kd [1]: 110 ± 5.8 µM
B1: Regnase-1 N-terminal domain (NTD) (domain or fragment, Mus musculus)
chain: TSELQMKVDFFRKLGYSSSEIHSVLQKLGVQADTNTVLGELVKHG
notes: Regnase-1 (Zc3h12a), Mus musculus, N-terminal domain; residues 90-133 are called the connection between the NTD and PIN; Uniformly 15N-labelled or unlabelled in the NMR experiments; not shown: GST, N-terminal, cleaved

B2: IL-6 mRNA 3'UTR (82-106) (ssRNA)
RNA: UGUUGUUCUCUACGAAGAACUGACA
Kd (Regnase-1 ZF domain): 10 ± 1.1 µM

B3: Regnase-1 PIN domain, wild type (domain or fragment, Mus musculus, UniProt Q5D1E7 134-295, looked up)
chain: T1 sequence (looked up) with N93D, N111D, R145D
notes: Regnase-1 (Zc3h12a, MCPIP1), Mus musculus, PIN domain; the discussion gives PIN as residues 134-295; The limits 134-295 are told for the PIN domain in the discussion, not expressly for the construct; 15N-labelled for NMR; also called PilT N-terminus like domain; not shown: GST, N-terminal, cleaved
Kd [2]: ~100 µM

B4: Regnase-1 PIN domain R215E (domain or fragment, Mus musculus, UniProt Q5D1E7 134-295, looked up)
chain: T1 sequence (looked up) with R82E, N93D, N111D, R145D
notes: Regnase-1 (Zc3h12a), Mus musculus, PIN domain; the discussion gives PIN as residues 134-295; Limits as for m1; not shown: GST, N-terminal, cleaved
binding result [3]: binds

B5: Regnase-1 PIN-ZF (residues 134-339) (domain or fragment, Mus musculus, UniProt Q5D1E7 134-339, looked up)
chain: DLRPVVIDGSNVAMSHGNKEVFSCRGILLAVNWFLERGHTDITVFVPSWRKEQPRPDVPITDQHILRELEKKKILVFTPSRRVGGKRVVCYDDRFIVKLAFESDGVVVSNDTYRDLQGERQEWKRFIEERLLMYSFVNDKFMPPDDPLGRHGPSLDNFLRKKPLPSEHRKQPCPYGKKCTYGIKCRFFHPERPSRPQRSVADELRA
modifications: selenomethionine-labeled (form I crystals); native (form II crystals)
notes: Regnase-1 (Zc3h12a), Mus musculus, PIN and ZF domains, residues 134-339; Electron density was observed only for the PIN domain; also called fragment containing both the PIN and ZF domains; not shown: GST, N-terminal, cleaved
binding result [4]: binds

From article PMC4772114, “Structural basis for the regulation of enzymatic activity of Regnase-1 by domain-domain interactions” (Scientific Reports, 2016)
